Target: the molecule itself
Experiment: crystal structure; anti-IL-17A-76 and IL-17A mixed at molar ratio 2.3:1, complex isolated on Superdex G-75; vapor diffusion at 297 K; 2.85 A; molecular replacement with 4HSA and 6QKD

B1: IL-17A (interleukin-17A) without N-signal sequence, double mutation N68D/C129S (ligand, UniProt Q16552 24-155, looked up)
chain: GITIPRNPGCPNSEDKNFPRTVMVNLNIHNRNTNTNPKRSSDYYDRSTSPWNLHRNEDPERYPSVIWEAKCRHLGCINADGNVDYHMNSVPIQQEILVLRREPPHSPNSFRLEKILVSVGCTCVTPIVHHVA
notes: Dimer in the crystal (monomer in the asymmetric unit, molecules A and A*); also called the cytokine
binding result: binds

Reference: article PMC9738047 (International Journal of Molecular Sciences, 2022)
